Literature values, collected in patent US20250052762A1, “PEPTIDASE CLEAVABLE SUBSTRATES AND METHODS OF IDENTIFICATION AND USE THEREOF” (Alaunus Biosciences, Inc., priority 2020, published 2025).
Entries after “also recorded” stand apart in the source; their conditions may differ. Square brackets hold non-standard residues; d marks the D form. Ends that are not written are not given here. * marks the point of attachment. MeOSuc = COC(=O)CCC(=O)*; 2Abz = Nc1ccccc1C(=O)O; dnp = not defined here; SBn = c1ccc(CS*)cc1

Legend:
granzyme B = granzyme B (Homo sapiens, UniProt P10144); conditions: for measured catalytic efficiency: candidate natural substrates, fluorescence assay (Boivin et al., 2012)
neutrophil elastase = biological target: T1, neutrophil elastase (Homo sapiens, UniProt P08246)
T1 sequence (P08246 30-267): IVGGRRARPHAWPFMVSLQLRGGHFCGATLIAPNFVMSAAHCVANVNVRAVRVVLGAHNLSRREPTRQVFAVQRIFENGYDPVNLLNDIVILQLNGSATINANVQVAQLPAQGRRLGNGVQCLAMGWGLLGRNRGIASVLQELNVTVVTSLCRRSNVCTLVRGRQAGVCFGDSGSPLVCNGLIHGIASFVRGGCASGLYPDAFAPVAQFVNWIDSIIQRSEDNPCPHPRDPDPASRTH

MMP14 = MMP14 (Homo sapiens, UniProt P50281); conditions: for Michaelis constant (KM): magnitude in words
[1] = magnitude in words, top-most active substrates in BRENDA database
[2] = top-most active substrates in BRENDA database

Sequence of granzyme B (P10144 21-247): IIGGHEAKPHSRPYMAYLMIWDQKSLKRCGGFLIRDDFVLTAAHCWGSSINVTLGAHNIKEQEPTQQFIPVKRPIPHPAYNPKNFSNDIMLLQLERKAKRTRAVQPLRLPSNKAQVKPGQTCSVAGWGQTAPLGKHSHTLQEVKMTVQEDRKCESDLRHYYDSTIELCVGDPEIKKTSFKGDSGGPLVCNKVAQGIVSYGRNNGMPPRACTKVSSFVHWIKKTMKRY

Q: Which results are given for “2-aminobenzoyl-IEPDSSMESK-dnp ([2Abz]IEPDSSMESK-dnp; reading uncertain; also: printed as 2-aminobenzoyl-IEPDSSMESK-dnp) [fluorescent tool substrate for granzyme B]”?
A: estimated catalytic efficiency (granzyme B; estimated from KM and kcat, fluorescence assay (Sun et al., 2001)): 758 mM⁻¹ s⁻¹; Michaelis constant (KM) (granzyme B; [1]): micromolar; turnover number (kcat) (granzyme B; [2]): 1 to 5 s⁻¹

Q: With “methoxysuccinyl-Ala-Ala-Pro-Val-thiobenzyl ester (MeOSuc-AAPV-SBn; SMILES COC(=O)CCC(=O)N[C@@H](C)C(=O)N[C@@H](C)C(=O)N1CCC[C@H]1C(=O)N[C@H](C(=O)SCc1ccccc1)C(C)C) [fluorescent tool substrate for neutrophil elastase]” as the molecule, how does the estimated catalytic efficiency (neutrophil elastase; estimated from KM and kcat, fluorescence assay (Stein et al., 1987)) read?
A: 9565 mM⁻¹ s⁻¹

Q: What about the “Michaelis constant (KM)” value (neutrophil elastase; [1]) of the same molecule?
A: micromolar

Q: And the “turnover number (kcat)” value (neutrophil elastase; [2])?
A: up to 22 s^−1

Q: For “collagen I alpha-1: collagen I alpha-1 chain, natural substrate of MMP14”, which “Michaelis constant (KM)” value (MMP14; BRENDA database) is on record?
A: piocomolar; also recorded: picomolar

Q: With “methoxycoumarin-4-acetyl-Lys-Pro-Leu-Gly-Leu-Lys (2,4-dinitrophenyl)-Ala-Arg-NH2 ({methoxycoumarin‑4‑acetyl}-KPLGLK(2,4‑dinitrophenyl)AR-NH2; not fully specified; printed as methoxycoumarin-4-acetyl-Lys-Pro-Leu-Gly-Leu-Lys (2,4-dinitrophenyl)-Ala-Arg-NH₂)” as the molecule, how does the catalytic efficiency (MMP14; measured by fluorescence assay, BRENDA database) read?
A: 550 to 2429 mM⁻¹ s⁻¹

Q: What about the turnover number (MMP14; reported in BRENDA database) of the same molecule?
A: 0.33 to 6.8 s⁻¹

Q: With “collagen I alpha-2: collagen I alpha-2 chain, natural substrate of MMP14” as the molecule, how does the “Michaelis constant (KM)” value (MMP14; BRENDA database) read?
A: piocomolar; also recorded: picomolar

B1: decorin: candidate natural substrate of granzyme B (protein, UniProt P07585 31-359, looked up)
Decorin: DEASGIGPEVPDDRDFEPSLGPVCPFRCQCHLRVVQCSDLGLDKVPKDLPPDTTLLDLQNNKITEIKDGDFKNLKNLHALILVNNKISKVSPGAFTPLVKLERLYLSKNQLKELPEKMPKTLQELRAHENEITKVRKVTFNGLNQMIVIELGTNPLKSSGIENGAFQGMKKLSYIRIADTNITSIPQGLPPSLTELHLDGNKISRVDAASLKGLNNLAKLGLSFNSISAVDNGSLANTPHLRELHLDNNKLTRVPGGLAEHKYIQVVYLHNNNISVVGSSDFCPPGHNTKKASYSGVSLFSNPVQYWEIQPSTFRCVYVRSAIQLGNYK
Q: Which measured catalytic efficiency (granzyme B) does the source give for B1 here?
A: 1 mM⁻¹ s⁻¹

B2: beta-glycan: candidate natural substrate of granzyme B (protein, UniProt Q03167 21-851, looked up)
Transforming growth factor …: GPEPGALCELSPVSASHPVQALMESFTVLSGCASRGTTGLPQEVHVLNLRTAGQGPGQLQREVTLHLNPISSVHIHHKSVVFLLNSPHPLVWHLKTERLATGVSRLFLVSEGSVVQFSSANFSLTAETEERNFPHGNEHLLNWARKEYGAVTSFTELKIARNIYIKVGEDQVFPPKCNIGKNFLSLNYLAEYLQPKAAEGCVMSSQPQNEEVHIIELITPNSNPYSAFQVDITIDIRPSQEDLEVVKNLILILKCKKSVNWVIKSFDVKGSLKIIAPNSIGFGKESERSMTMTKSIRDDIPSTQGNLVKWALDNGYSPITSYTMAPVANRFHLRLENNAEEMGDEEVHTIPPELRILLDPGALPALQNPPIRGGEGQNGGLPFPFPDISRRVWNEEGEDGLPRPKDPVIPSIQLFPGLREPEEVQGSVDIALSVKCDNEKMIVAVEKDSFQASGYSGMDVTLLDPTCKAKMNGTHFVLESPLNGCGTRPRWSALDGVVYYNSIVIQVPALGDSSGWPDGYEDLESGDNGFPGDMDEGDASLFTRPEIVVFNCSLQQVRNPSSFQEQPHGNITFNMELYNTDLFLVPSQGVFSVPENGHVYVEVSVTKAEQELGFAIQTCFISPYSNPDRMSHYTIIENICPKDESVKFYSPKRVHFPIPQADMDKKRFSFVFKPVFNTSLLFLQCELTLCTKMEKHPQKLPKCVPPDEACTSLDASIIWAMMQNKKTFTKPLAVIHHEAESKEKGPSMKEPNPISPPIFHGLDTLTVMGIAFAAFVIGALLTGALWYIYSHTGETAGRQQVPTSPPASENSSAAHSIGSTQSTPCSSSSTA
Q: Which measured catalytic efficiency (granzyme B) does the source give for B2 here?
A: 5.9 mM⁻¹ s⁻¹

B3: biglycan: candidate natural substrate of granzyme B (protein, UniProt P21810 38-368, looked up)
Biglycan: DEEASGADTSGVLDPDSVTPTYSAMCPFGCHCHLRVVQCSDLGLKSVPKEISPDTTLLDLQNNDISELRKDDFKGLQHLYALVLVNNKISKIHEKAFSPLRKLQKLYISKNHLVEIPPNLPSSLVELRIHDNRIRKVPKGVFSGLRNMNCIEMGGNPLENSGFEPGAFDGLKLNYLRISEAKLTGIPKDLPETLNELHLDHNKIQAIELEDLLRYSKLYRLGLGHNQIRMIENGSLSFLPTLRELHLDNNKLARVPSGLPDLKLLQVVYLHSNNITKVGVNDFCPMGFGVKRAYYNGISLFNNPVPYWEVQPATFRCVTDRLAIQFGNYKK
Q: Which measured catalytic efficiency (granzyme B) does the source give for B3 here?
A: 1.7 mM⁻¹ s⁻¹
